Source: the supplement of paper PMC10065799, “High-throughput profiling of sequence recognition by tyrosine kinases and SH2 domains using bacterial peptide display” (eLife, 2023)
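Throughout, for SH2 binding enrichment of the phosphorylated peptide, bacterial display: peptide library displayed on the E. coli surface as eCPX fusions, selected cells deep-sequenced, score is each peptide's frequency after selection divided by its frequency in the input.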
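Throughout, for phosphorylation enrichment, bacterial display: 11-residue human phosphosite peptides and single-mutation variants displayed on the E. coli surface, counted by deep sequencing, each peptide's frequency after selection divided by its frequency in the unselected input library; frequency after pTyr selection over input frequency; kinase dosed for 20-30% of maximal phosphorylation in three min.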

What follows are sequences tested against Hck (UniProt P08631) (assay: phosphorylation enrichment, bacterial display (enrichment ratio); higher = better substrate or ligand; peptides without Tyr show the background).
Hck, sequence (P08631 whole entry, looked up): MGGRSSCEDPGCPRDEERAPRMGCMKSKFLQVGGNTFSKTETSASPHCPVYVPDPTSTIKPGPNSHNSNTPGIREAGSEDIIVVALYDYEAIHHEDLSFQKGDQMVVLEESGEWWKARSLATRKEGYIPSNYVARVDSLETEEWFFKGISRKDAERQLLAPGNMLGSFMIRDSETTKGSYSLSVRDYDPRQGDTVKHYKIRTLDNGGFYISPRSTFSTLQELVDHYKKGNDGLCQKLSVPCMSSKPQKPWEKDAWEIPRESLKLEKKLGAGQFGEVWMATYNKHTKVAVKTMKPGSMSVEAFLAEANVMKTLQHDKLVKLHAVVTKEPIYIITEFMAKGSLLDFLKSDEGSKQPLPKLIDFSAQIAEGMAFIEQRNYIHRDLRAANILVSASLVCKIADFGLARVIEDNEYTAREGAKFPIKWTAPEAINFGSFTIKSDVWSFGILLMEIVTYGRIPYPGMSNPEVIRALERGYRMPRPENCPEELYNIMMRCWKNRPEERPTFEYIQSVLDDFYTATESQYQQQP
With VMVCAYLLHRG [PTEN_Y138_I135V] the phosphorylation enrichment was 0.584. Sequence QFFQGYFNNNF [ZNF236_Y644_S643G] has a phosphorylation enrichment of 0.574. VIKDKYPQARY [APTX_Y209_K211Q] was tested, and the phosphorylation enrichment was 0.373. Work on VQDPAYLRDIN [OPRK1_Y369_D374N] yielded a phosphorylation enrichment of 0.442. Work on EWLRGYLENGK [HLA-C_Y195_R194G] yielded a phosphorylation enrichment of 0.483. Work on KQMEQYMSFHK [HCN1_Y417_V414M] yielded a phosphorylation enrichment of 4.18. EWQQTYTYDSG [JUP_Y20] showed a phosphorylation enrichment of 0.783. Sequence HNLDFYKKTTN [FGFR3_Y648_YF] has a phosphorylation enrichment of 1.15. GVRLFYRVMES [RB1_Y454_YF] gave a phosphorylation enrichment of 0.541. SVTCTYSPALN [TP53_Y126] gave a phosphorylation enrichment of 0.641. AEPPDYSPVTQ [ADGRG2_Y285_H290Q] showed a phosphorylation enrichment of 0.557. GKFRMYVAVWT [F13A1_Y161] gave a phosphorylation enrichment of 0.365. In the case of REDVFYTSKLW [AKR1C2_Y81_I79V], the phosphorylation enrichment is reported as 0.802. TVETKYDNISR [SETDB2_Y477] was tested, and the phosphorylation enrichment was 0.477. RKQQLYTAMEE [CCDC39_Y593] was tested, and the phosphorylation enrichment was 0.855. For EELLRYAIVTP [POC5_Y37_H36R], the phosphorylation enrichment was 0.439. For PVDNLYAEPAV [PRPS1_Y146], the phosphorylation enrichment was 3.99. NQLNDYIFSFD [RARS1_Y516_R512Q] gave a phosphorylation enrichment of 0.546. FQKNIYSEEPR [LMNA_Y211_L215P] gave a phosphorylation enrichment of 0.763. KELALYDENWF [RPS19_Y48_P47L] was tested, and the phosphorylation enrichment was 1.41. Work on KRISCYEARFQ [PFKFB3_Y194_S197R_YF] yielded a phosphorylation enrichment of 0.425. Sequence FSAPNYCFRCG [PPP2CA_Y265_YF] has a phosphorylation enrichment of 0.374. With ADVLDYIKALN [HPRT1_Y81_L78V] the phosphorylation enrichment was 0.489. With EVTLTYATGTK [NFKB1_Y485] the phosphorylation enrichment was 0.514. Work on FLAVGYHKPHI [IDS_Y225] yielded a phosphorylation enrichment of 0.602. FADTAYNFRHG [PAH_Y166_I164T_YF] gave a phosphorylation enrichment of 0.379. Sequence VMTVDYSKTVV [SETD2_Y770] has a phosphorylation enrichment of 0.434. For SVKVYYKKCWF [EPHA7_Y202_S207F], the phosphorylation enrichment was 0.382. LIQRNYKLTAQ [ALPK2_Y1975_A1978T] showed a phosphorylation enrichment of 0.507. For DVFVSYDFGKS [SORL1_Y139_YF], the phosphorylation enrichment was 0.636. Work on AFRRGYFDEEM [PLEC_Y2971_YF] yielded a phosphorylation enrichment of 0.599. Sequence IIRRLYLKWHP [SACS_Y4333] has a phosphorylation enrichment of 0.497. In the case of SEPDLYCDPRG [PKP1_Y160], the phosphorylation enrichment is reported as 5.26.

The sequences below were run against c-Src SH2 (assay: SH2 binding enrichment of the phosphorylated peptide, bacterial display (enrichment ratio); higher = better substrate or ligand; peptides without Tyr show the background).
With VMVCAYLLHRG [PTEN_Y138_I135V] the SH2 binding enrichment was 0.724. QFFQGYFNNNF [ZNF236_Y644_S643G] gave an SH2 binding enrichment of 1.28. Sequence VIKDKYPQARY [APTX_Y209_K211Q] has an SH2 binding enrichment of 0.532. For VQDPAYLRDIN [OPRK1_Y369_D374N], the SH2 binding enrichment was 0.454. Sequence EWLRGYLENGK [HLA-C_Y195_R194G] has an SH2 binding enrichment of 0.43. KQMEQYMSFHK [HCN1_Y417_V414M] was tested, and the SH2 binding enrichment was 0.576. For EWQQTYTYDSG [JUP_Y20], the SH2 binding enrichment was 1.01. Sequence HNLDFYKKTTN [FGFR3_Y648_YF] has an SH2 binding enrichment of 0.5. For GVRLFYRVMES [RB1_Y454_YF], the SH2 binding enrichment was 0.429. Work on SVTCTYSPALN [TP53_Y126] yielded an SH2 binding enrichment of 0.401. AEPPDYSPVTQ [ADGRG2_Y285_H290Q] showed an SH2 binding enrichment of 0.441. With GKFRMYVAVWT [F13A1_Y161] the SH2 binding enrichment was 0.5. Work on REDVFYTSKLW [AKR1C2_Y81_I79V] yielded an SH2 binding enrichment of 0.511. With TVETKYDNISR [SETDB2_Y477] the SH2 binding enrichment was 3.03. For RKQQLYTAMEE [CCDC39_Y593], the SH2 binding enrichment was 3.25. EELLRYAIVTP [POC5_Y37_H36R] gave an SH2 binding enrichment of 9.68. PVDNLYAEPAV [PRPS1_Y146] gave an SH2 binding enrichment of 0.671. NQLNDYIFSFD [RARS1_Y516_R512Q] showed an SH2 binding enrichment of 0.553. FQKNIYSEEPR [LMNA_Y211_L215P] was tested, and the SH2 binding enrichment was 0.578. In the case of KELALYDENWF [RPS19_Y48_P47L], the SH2 binding enrichment is reported as 0.456. KRISCYEARFQ [PFKFB3_Y194_S197R_YF] showed an SH2 binding enrichment of 0.64. FSAPNYCFRCG [PPP2CA_Y265_YF] showed an SH2 binding enrichment of 0.763. Sequence ADVLDYIKALN [HPRT1_Y81_L78V] has an SH2 binding enrichment of 0.553. For EVTLTYATGTK [NFKB1_Y485], the SH2 binding enrichment was 0.418. For FLAVGYHKPHI [IDS_Y225], the SH2 binding enrichment was 1.18. For FADTAYNFRHG [PAH_Y166_I164T_YF], the SH2 binding enrichment was 0.45. Work on VMTVDYSKTVV [SETD2_Y770] yielded an SH2 binding enrichment of 0.528. With SVKVYYKKCWF [EPHA7_Y202_S207F] the SH2 binding enrichment was 0.501. Work on LIQRNYKLTAQ [ALPK2_Y1975_A1978T] yielded an SH2 binding enrichment of 0.532. For DVFVSYDFGKS [SORL1_Y139_YF], the SH2 binding enrichment was 0.464. With AFRRGYFDEEM [PLEC_Y2971_YF] the SH2 binding enrichment was 0.636. Work on IIRRLYLKWHP [SACS_Y4333] yielded an SH2 binding enrichment of 0.34. SEPDLYCDPRG [PKP1_Y160] showed an SH2 binding enrichment of 0.563.

Each sequence was assayed against SHP2-C SH2 in the same assay as above.
With VMVCAYLLHRG [PTEN_Y138_I135V] the SH2 binding enrichment was 0.723. In the case of QFFQGYFNNNF [ZNF236_Y644_S643G], the SH2 binding enrichment is reported as 1.51. Work on VIKDKYPQARY [APTX_Y209_K211Q] yielded an SH2 binding enrichment of 0.66. For VQDPAYLRDIN [OPRK1_Y369_D374N], the SH2 binding enrichment was 0.555. In the case of EWLRGYLENGK [HLA-C_Y195_R194G], the SH2 binding enrichment is reported as 1.06. For KQMEQYMSFHK [HCN1_Y417_V414M], the SH2 binding enrichment was 0.429. Work on EWQQTYTYDSG [JUP_Y20] yielded an SH2 binding enrichment of 0.775. HNLDFYKKTTN [FGFR3_Y648_YF] showed an SH2 binding enrichment of 0.602. Work on GVRLFYRVMES [RB1_Y454_YF] yielded an SH2 binding enrichment of 0.684. With SVTCTYSPALN [TP53_Y126] the SH2 binding enrichment was 0.616. With AEPPDYSPVTQ [ADGRG2_Y285_H290Q] the SH2 binding enrichment was 0.93. Work on GKFRMYVAVWT [F13A1_Y161] yielded an SH2 binding enrichment of 0.619. Sequence REDVFYTSKLW [AKR1C2_Y81_I79V] has an SH2 binding enrichment of 0.729. Sequence TVETKYDNISR [SETDB2_Y477] has an SH2 binding enrichment of 0.769. For RKQQLYTAMEE [CCDC39_Y593], the SH2 binding enrichment was 0.576. Sequence EELLRYAIVTP [POC5_Y37_H36R] has an SH2 binding enrichment of 14. For PVDNLYAEPAV [PRPS1_Y146], the SH2 binding enrichment was 0.63. NQLNDYIFSFD [RARS1_Y516_R512Q] gave an SH2 binding enrichment of 0.632. Work on FQKNIYSEEPR [LMNA_Y211_L215P] yielded an SH2 binding enrichment of 0.462. KELALYDENWF [RPS19_Y48_P47L] was tested, and the SH2 binding enrichment was 0.611. KRISCYEARFQ [PFKFB3_Y194_S197R_YF] showed an SH2 binding enrichment of 0.941. In the case of FSAPNYCFRCG [PPP2CA_Y265_YF], the SH2 binding enrichment is reported as 0.702. Sequence ADVLDYIKALN [HPRT1_Y81_L78V] has an SH2 binding enrichment of 0.869. In the case of EVTLTYATGTK [NFKB1_Y485], the SH2 binding enrichment is reported as 0.528. Work on FLAVGYHKPHI [IDS_Y225] yielded an SH2 binding enrichment of 1.27. With FADTAYNFRHG [PAH_Y166_I164T_YF] the SH2 binding enrichment was 0.562. For VMTVDYSKTVV [SETD2_Y770], the SH2 binding enrichment was 1.19. With SVKVYYKKCWF [EPHA7_Y202_S207F] the SH2 binding enrichment was 0.657. Sequence LIQRNYKLTAQ [ALPK2_Y1975_A1978T] has an SH2 binding enrichment of 0.952. In the case of DVFVSYDFGKS [SORL1_Y139_YF], the SH2 binding enrichment is reported as 0.641. With AFRRGYFDEEM [PLEC_Y2971_YF] the SH2 binding enrichment was 0.334. IIRRLYLKWHP [SACS_Y4333] was tested, and the SH2 binding enrichment was 0.568. Sequence SEPDLYCDPRG [PKP1_Y160] has an SH2 binding enrichment of 0.93.

These sequences were tested against Grb2 SH2 (UniProt P62993) in the same assay as above.
Grb2 SH2, sequence (P62993 whole entry, looked up): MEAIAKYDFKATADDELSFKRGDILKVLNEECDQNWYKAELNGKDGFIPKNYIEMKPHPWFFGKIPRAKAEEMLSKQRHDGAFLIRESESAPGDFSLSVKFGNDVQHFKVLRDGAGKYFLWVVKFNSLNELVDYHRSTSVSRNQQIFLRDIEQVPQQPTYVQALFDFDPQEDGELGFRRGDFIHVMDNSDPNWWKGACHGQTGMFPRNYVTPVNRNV
Sequence VMVCAYLLHRG [PTEN_Y138_I135V] has an SH2 binding enrichment of 0.91. QFFQGYFNNNF [ZNF236_Y644_S643G] showed an SH2 binding enrichment of 1.63. With VIKDKYPQARY [APTX_Y209_K211Q] the SH2 binding enrichment was 0.888. Work on VQDPAYLRDIN [OPRK1_Y369_D374N] yielded an SH2 binding enrichment of 0.75. For EWLRGYLENGK [HLA-C_Y195_R194G], the SH2 binding enrichment was 0.871. In the case of KQMEQYMSFHK [HCN1_Y417_V414M], the SH2 binding enrichment is reported as 0.822. EWQQTYTYDSG [JUP_Y20] showed an SH2 binding enrichment of 0.813. HNLDFYKKTTN [FGFR3_Y648_YF] was tested, and the SH2 binding enrichment was 1.02. GVRLFYRVMES [RB1_Y454_YF] gave an SH2 binding enrichment of 0.624. For SVTCTYSPALN [TP53_Y126], the SH2 binding enrichment was 0.766. AEPPDYSPVTQ [ADGRG2_Y285_H290Q] showed an SH2 binding enrichment of 0.82. GKFRMYVAVWT [F13A1_Y161] was tested, and the SH2 binding enrichment was 0.997. REDVFYTSKLW [AKR1C2_Y81_I79V] gave an SH2 binding enrichment of 0.807. TVETKYDNISR [SETDB2_Y477] was tested, and the SH2 binding enrichment was 0.959. In the case of RKQQLYTAMEE [CCDC39_Y593], the SH2 binding enrichment is reported as 1.29. EELLRYAIVTP [POC5_Y37_H36R] was tested, and the SH2 binding enrichment was 0.871. For PVDNLYAEPAV [PRPS1_Y146], the SH2 binding enrichment was 1.04. With NQLNDYIFSFD [RARS1_Y516_R512Q] the SH2 binding enrichment was 0.928. In the case of FQKNIYSEEPR [LMNA_Y211_L215P], the SH2 binding enrichment is reported as 0.809. KELALYDENWF [RPS19_Y48_P47L] gave an SH2 binding enrichment of 0.834. In the case of KRISCYEARFQ [PFKFB3_Y194_S197R_YF], the SH2 binding enrichment is reported as 0.999. Sequence FSAPNYCFRCG [PPP2CA_Y265_YF] has an SH2 binding enrichment of 1.24. In the case of ADVLDYIKALN [HPRT1_Y81_L78V], the SH2 binding enrichment is reported as 0.76. EVTLTYATGTK [NFKB1_Y485] showed an SH2 binding enrichment of 0.701. FLAVGYHKPHI [IDS_Y225] gave an SH2 binding enrichment of 1.21. In the case of FADTAYNFRHG [PAH_Y166_I164T_YF], the SH2 binding enrichment is reported as 0.881. In the case of VMTVDYSKTVV [SETD2_Y770], the SH2 binding enrichment is reported as 0.937. Sequence SVKVYYKKCWF [EPHA7_Y202_S207F] has an SH2 binding enrichment of 0.712. Work on LIQRNYKLTAQ [ALPK2_Y1975_A1978T] yielded an SH2 binding enrichment of 1.24. With DVFVSYDFGKS [SORL1_Y139_YF] the SH2 binding enrichment was 0.863. With AFRRGYFDEEM [PLEC_Y2971_YF] the SH2 binding enrichment was 0.73. For IIRRLYLKWHP [SACS_Y4333], the SH2 binding enrichment was 0.768. Work on SEPDLYCDPRG [PKP1_Y160] yielded an SH2 binding enrichment of 1.03.
